From publication PMC11340043

Target: human LIFR-his (human) (UniProt P42702)
Sequence (P42702 45-833): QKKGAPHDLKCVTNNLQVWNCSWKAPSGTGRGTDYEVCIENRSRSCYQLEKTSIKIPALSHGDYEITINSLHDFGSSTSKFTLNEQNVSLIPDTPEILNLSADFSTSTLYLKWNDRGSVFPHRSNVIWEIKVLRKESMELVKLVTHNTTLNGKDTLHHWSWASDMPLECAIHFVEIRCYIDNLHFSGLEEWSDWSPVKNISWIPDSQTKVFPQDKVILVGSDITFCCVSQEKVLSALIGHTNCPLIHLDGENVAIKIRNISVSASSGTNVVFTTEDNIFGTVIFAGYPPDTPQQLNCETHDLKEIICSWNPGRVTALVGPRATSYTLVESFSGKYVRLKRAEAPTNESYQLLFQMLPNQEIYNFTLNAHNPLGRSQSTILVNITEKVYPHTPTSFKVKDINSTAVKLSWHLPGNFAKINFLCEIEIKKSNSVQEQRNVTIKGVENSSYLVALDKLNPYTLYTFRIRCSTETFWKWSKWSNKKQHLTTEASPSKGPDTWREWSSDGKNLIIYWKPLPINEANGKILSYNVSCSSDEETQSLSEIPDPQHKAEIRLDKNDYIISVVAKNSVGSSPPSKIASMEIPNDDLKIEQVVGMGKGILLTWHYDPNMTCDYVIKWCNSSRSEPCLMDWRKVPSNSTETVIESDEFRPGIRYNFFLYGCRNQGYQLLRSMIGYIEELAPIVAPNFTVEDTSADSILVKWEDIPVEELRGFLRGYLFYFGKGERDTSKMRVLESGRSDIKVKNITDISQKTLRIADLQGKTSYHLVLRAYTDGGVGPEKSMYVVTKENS

Chain of human LIF (P15018 23-202): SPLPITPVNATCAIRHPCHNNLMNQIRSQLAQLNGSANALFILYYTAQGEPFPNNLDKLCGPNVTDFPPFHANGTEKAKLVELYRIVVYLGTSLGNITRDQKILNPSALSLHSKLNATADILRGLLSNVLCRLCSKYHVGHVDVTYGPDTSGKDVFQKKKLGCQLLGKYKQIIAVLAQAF

- LIF-induced p-STAT3 (Tyr705) in U266 and HCT116 cells, western blot; dose-dependent inhibition by antibody 1G11, inhibition rate at 2 µg/ml 1G11: > 90%
Substance: human LIF (from UniProt P15018 23-202) (ligand)
